The record followed here is US20170021001A1.

This assay concerns the target TCRs of Du51-specific CD8^+CD45RC^low Tregs (CD8^+CD40Ig Tregs) (rat). In words: cell-based or functional assay.

The molecule NREEYARFDSDVGEYR [peptide Du51 (…)] yielded a CD25 expression at the cell surface of CD8^+CD40Ig Tregs, fold vs. no peptide (6 days coculture with matured syngeneic pDCs) (fold vs. no peptide) of 2.07. YLRYDSDVGEYRAVTE [peptide Bu31 (…)] came in with a CD25 expression at the cell surface of CD8^+CD40Ig Tregs, fold vs. no peptide (6 days coculture with matured syngeneic pDCs) (fold vs. no peptide) of 1.67. Turning to REEYARFDSDVGEYR [peptide 51-18 (…)], the CD25 upregulation on CD8^+CD40Ig Tregs, fold vs. no peptide (fold vs. no peptide) was determined as 2.04.
